Laboratory results: patent US20120238494A1 (published 2012)
Numbered stars: 1 amine (or outer) side, 2 acyl side, 3 side chain; on linkers, the order of the positions; unused ones are H or OH. Square brackets hold non-standard residues; d marks the D form. dSer(tBu) = CC(C)(C)OC[C@@H](N[*:1])C(=O)[*:2]; pGlu = O=C1CC[C@@H](C(=O)O)N1; azaGly = NNC(=O)O

Assays:
[1] = biological target: T1, human GnRH receptor (human, UniProt P30968 1-328); experiment: cell-based or functional assay
T1 construct: whole, on cells; Endogenous receptor; also called LHRH receptor; human pituitary GnRH receptor
T1 sequence (looked up): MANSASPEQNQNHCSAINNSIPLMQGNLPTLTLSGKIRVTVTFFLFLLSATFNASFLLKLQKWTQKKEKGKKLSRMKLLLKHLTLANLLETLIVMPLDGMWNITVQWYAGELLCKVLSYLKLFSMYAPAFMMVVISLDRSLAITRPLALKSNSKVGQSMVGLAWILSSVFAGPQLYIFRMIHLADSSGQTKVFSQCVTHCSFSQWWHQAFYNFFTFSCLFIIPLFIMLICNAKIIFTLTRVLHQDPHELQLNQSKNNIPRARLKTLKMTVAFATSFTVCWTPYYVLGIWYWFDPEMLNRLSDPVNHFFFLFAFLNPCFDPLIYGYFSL

[2] = biological target: T1, human GnRH receptor; experiment: radioligand binding, displacement curves, BLM human melanoma cell membranes
[3] = biological target: T2, rat GnRH receptor (rat pituitaries) (rat, UniProt P30969 1-327); experiment: radioligand binding, displacement curves, rat pituitaries (control)
T2 construct: whole, on cells; Endogenous receptor of rat pituitary tissue, used as the control preparation
T2 sequence (looked up): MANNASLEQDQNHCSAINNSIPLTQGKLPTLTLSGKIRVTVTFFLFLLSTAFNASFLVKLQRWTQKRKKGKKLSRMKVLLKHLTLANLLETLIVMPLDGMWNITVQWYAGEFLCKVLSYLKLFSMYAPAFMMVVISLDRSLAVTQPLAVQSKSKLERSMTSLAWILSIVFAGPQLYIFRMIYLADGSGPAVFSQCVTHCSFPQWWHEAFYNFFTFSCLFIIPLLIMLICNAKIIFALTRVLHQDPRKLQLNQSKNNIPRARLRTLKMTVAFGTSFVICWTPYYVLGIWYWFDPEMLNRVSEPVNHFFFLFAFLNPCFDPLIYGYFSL

[4] = biological target: T1, human GnRH receptor; experiment: radioligand binding, displacement curves, ME15392 human melanoma cell membranes

An inhibition of MV3 melanoma cell proliferation at 10^-4 M [1] of 15%, an inhibition of MV3 melanoma cell proliferation at 10^-5 M [1] of 35% and a stimulation of MV3 melanoma cell growth at 10^-6 M [1] of 40% were found for “Antide, a LHRH antagonist (Sigma Chemical Co., No. A8802) (peptide)” in this work.

A decrease of U-87MG cell proliferation at 10^-6 M [1] of 28% and an inhibition of U-87MG cell proliferation at 10^-5 M [1] of 30% were found for GnRH antagonist Cetrorelix (peptide) in this work.

An inhibition of MV3 melanoma cell proliferation at 10^-4 M, 10^-5 M and 10^-6 M, from day 4 on [1] of 15% was found for “Triptorelin, an LHRH agonist (Sigma Chemical Co., No. L9761) (peptide)” in this work.

B1: GnRH agonist LHRH-A, ZOLADEX [D-Ser(tBu)^6Aza-Gly-LHRH] (peptide)
peptide: [pGlu]HWSY[dSer(tBu)]LRP[azaGly]-NH2
modifications: also: 125I-labelled tracer form, position not given here
notes: the unlabelled form was used in the cell assays; also called Goserelin
A Kd [2] of 700 to 1100 pM, a Kd [3] of 1500 to 2000 pM and a Kd [4] of 100 to 600 pM were found for B1 in this work.
